Patent publication US20130102031A1

T1: human IL-17a (human) (UniProt Q16552)
T1 sequence (looked up): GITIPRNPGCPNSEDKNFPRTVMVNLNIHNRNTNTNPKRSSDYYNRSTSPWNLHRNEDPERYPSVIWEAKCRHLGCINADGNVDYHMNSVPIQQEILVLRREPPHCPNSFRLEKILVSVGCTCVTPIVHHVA

B1: anti-NGF antibody containing the HC with a CDR1 insertion encoded by SEQ ID NO: 19 (antibody, part only; not given: light chain and constant region, V domains shown, part only)
VH: QVQLVQSGAEVKKPGSSVKVSCKASGDTFSNYATGDTFSNYAISWVRQAPGQGFEWMGGIIPIFGIANYAQKFQGRVTITADESTSTAYMELSSLRSEDTAVYYCARGPEYYDYVWGSYRYNYFDYWGQGTLVTVSS
B2: anti-IL17a antibody containing the HC lacking the CDR3 insertion (encoded by SEQ ID NO: 29) (antibody, part only; not given: light chain and constant region, V domains shown, part only)
VH: EVQLVESGGGLVQPGGSLRLSCAASGFTFSNHWMNWVRQTPGKGLEWVAAINEDGSEKYYVGSVKVRFTISRDNAKNSLYLQMNSLRVEDTAVYYCARDYYDILTDYYIHYWYFDLWGRGTLVTVSSASTKGPSVFPLAP

Assays:
[1] = biological target: βNGF (human) (UniProt P01138); assay: HTRF competition: test antibody titrated against biotinylated Tanezumab (Streptavidin-XL665) for cryptate-labelled βNGF, 665 nm/620 nm ratio, three parameter fit
Sequence of UniProt P01138 (P01138 122-239 limits assumed): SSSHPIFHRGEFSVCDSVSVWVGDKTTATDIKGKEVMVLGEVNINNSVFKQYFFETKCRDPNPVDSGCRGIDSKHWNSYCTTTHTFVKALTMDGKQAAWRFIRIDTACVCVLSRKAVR

[2] = biological target: βNGF (human) (UniProt P01138); assay: HTRF competition; test antibody titrated against biotinylated Tanezumab for labeled βNGF
[3] = biological target: T1, human IL-17a (human); assay: KinExA 3000 solution equilibrium, N-curve analysis; human IL-17a on beads

Molecule | IC50 [1] | fold more potent IC50 than the HC encoded by SEQ ID NO: 16 [2] | Kd [3]
NEG CNT (antibody) | 4910 nM |  | 
B1 | 181 nM | 6 fold | 
B2 |  |  | 0.067 nM
